In US20220041738A1 (SAITAMA MEDICAL UNIVERSITY, published 2022):
Positions count from the first letter of the chain named.

Tests used:
[1] = molecular target: T1, mouse ALK2(WT)-EGFP on HEK293A cells (mouse, UniProt P37172 21-509); assay: flow cytometry on transfected HEK293A cells, Alexa 647 anti-rat IgG (APC-A) against EGFP (FITC-A)
T1 construct: Expressed from pcDEF3/mouse ALK2(WT)-EGFP; also called mALK2(WT)-EGFP; wild-type mouse ALK2; not shown: EGFP fused to ALK2
T1 sequence: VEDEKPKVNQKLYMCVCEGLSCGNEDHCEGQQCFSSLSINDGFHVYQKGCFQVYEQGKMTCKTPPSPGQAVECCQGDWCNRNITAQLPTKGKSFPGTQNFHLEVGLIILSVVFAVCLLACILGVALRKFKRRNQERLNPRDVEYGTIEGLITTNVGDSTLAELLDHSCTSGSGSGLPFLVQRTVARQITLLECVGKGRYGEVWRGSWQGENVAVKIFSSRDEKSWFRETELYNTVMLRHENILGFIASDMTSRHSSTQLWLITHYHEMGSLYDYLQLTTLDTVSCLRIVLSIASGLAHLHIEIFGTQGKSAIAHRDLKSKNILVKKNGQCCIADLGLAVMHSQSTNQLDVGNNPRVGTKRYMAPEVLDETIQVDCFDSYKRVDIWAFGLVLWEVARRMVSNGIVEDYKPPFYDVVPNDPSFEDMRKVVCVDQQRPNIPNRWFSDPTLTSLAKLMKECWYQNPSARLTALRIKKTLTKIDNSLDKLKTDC
Procedure: HEK293A cells were seeded into a 100-mm dish at 3×10⁴ cells/cm², and cultured overnight in 15% FBS-containing DMEM medium under the conditions of 5% CO₂ at 37° C. On the following day, the HEK293A cells were transfected with each of pcDEF3/mouse ALK2(WT)-EGFP, pcDEF3/human ALK2(WT)-EGFP, pcDEF3/human ALK2 (R206H)-EGFP, and pcDEF3, using Lipofectamine 2000 (Invitrogen), and further cultured overnight. On the following day, 100 μL each of the cell suspensions adjusted to 1×10⁶ cells/mL was dispensed into a 1.5-mL microfuge and centrifuged at 500 g for 5 minutes, and then the supernatant was removed. To the cells, 100 μL of purified IgG diluted to 1 μg/mL was added, and the cells were left for 30 minutes at 4° C. After the cells were washed with PBS three times, 100 μL of Alexa flour 647 Goat anti-Rat IgG (H+L) (Life Technologies) diluted to 1:200 was added, and the cells were further left for 30 minutes at 4° C. After the cells were washed with PBS three times, fluorescence was detected by a flow cytometer (FACS Aria II: BD Biosciences). The data was analyzed using BD Diva Software (BD Biosciences), and the intensity of EGFP expressed by the cells and the fluorescence intensity of stained Alexa flour 647 were plotted.

[2] = molecular target: T2, human ALK2-P197_F198delinsL on cells (human, UniProt Q04771 21-509); assay: immunofluorescence on transfected, formalin-fixed C2C12 cells, IgG at 10 µg/mL, Alexa 594 anti-rat IgG
T2 construct: also called delP197_F198insL
T2 sequence: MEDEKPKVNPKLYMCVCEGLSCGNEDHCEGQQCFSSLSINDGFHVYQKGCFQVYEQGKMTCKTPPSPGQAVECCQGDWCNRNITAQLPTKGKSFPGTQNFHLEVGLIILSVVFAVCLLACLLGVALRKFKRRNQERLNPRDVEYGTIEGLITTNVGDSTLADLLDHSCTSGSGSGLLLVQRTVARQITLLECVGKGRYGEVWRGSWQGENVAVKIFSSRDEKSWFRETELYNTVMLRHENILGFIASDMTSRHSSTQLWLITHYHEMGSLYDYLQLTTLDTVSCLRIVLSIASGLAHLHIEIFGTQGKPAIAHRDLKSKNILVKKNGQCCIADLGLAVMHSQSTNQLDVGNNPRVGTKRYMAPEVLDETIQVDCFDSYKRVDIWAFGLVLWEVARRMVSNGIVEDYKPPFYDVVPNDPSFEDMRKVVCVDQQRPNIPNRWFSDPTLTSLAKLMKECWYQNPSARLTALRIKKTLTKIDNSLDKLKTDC
Procedure: (§1) Mouse C2C12 cells were seeded into a 96-well plate (Greiner Bio-One) at 0.5×10³ cells/well, and cultured in 15% FBS-containing DMEM medium overnight under the conditions of 5% CO₂ at 37° C. On the following day, the C2C12 cells were transfected with each of a wild-type human ALK2 cDNA integrated into pcDEF3; pcDEF3/human ALK2-L196P, pcDEF3/human ALK2-P197_F198delinsL, pcDEF3/human ALK2-R202I, pcDEF3/human ALK2-R206H, pcDEF3/human ALK2-Q207E, pcDEF3/human ALK2-R258S, pcDEF3/human ALK2-G325A, pcDEF3/human ALK2-G328E, pcDEF3/human ALK2-G328R, pcDEF3/human ALK2-G328W, pcDEF3/human ALK2-G356D, and pcDEF3/human ALK2-R375P, which are variants identified in FOP; and pcDEF3 as a control, using Lipofectamine 2000 (Invitrogen), and further cultured overnight.
(§2) The C2C12 cells were fixed with 10% neutral formalin (Nacalai Tesque, Japan) for 20 minutes at room temperature, and then blocked with 10% goat normal serum for 30 minutes. After the blocking agent was removed, purified IgG diluted to 10 μg/mL with the blocking agent was added, and the cells were left for 1 hour at room temperature. After the cells were washed with PBS three times, Goat Alexa 594-conjugated anti-rat IgG (Invitrogen) diluted to 1:1000 with the blocking agent was added, and the cells were left for 1 hour at room temperature. After the cells were washed with PBS three times, the cells were fixed with 10% neutral formalin for 15 minutes at room temperature, and nuclear-stained with DAPI (LifeTechnologies). Fluorescent signals were analyzed with a fluorescence microscope BZ-9000 (Keyence).

[3] = molecular target: T3, human ALK2-G325A on cells (human, UniProt Q04771 21-509); assay: as above
T3 sequence: T1 sequence with V1M, Q10P, I121L, E162D, G305A, S310P
Procedure: as §1, §2

B1: rat anti-ALK2 monoclonal antibody A2-11E (antibody, V domains shown)
VH: EVQLVETGGGLVQPGRSLKLSCVASGFTFSNYYMYWIRQAPGKGLEWISSINTDGGSTYYPDSVKGRFAISRDNAENTVYLQMNSLRSEDTATYYCAKSTPNIPLAYWGQGTLVTVSS
VL: DIQMTQSPSLLSASVGDRVTLSCKASQNIYKYLNWFQQKLGEAPKLLIYYSNSLQTGIPSRFSGSGSGTDFTLTISSLQPEDVAIYFCFQYSSGPTFGPGTKLELKR
notes: Rat monoclonal IgG from a hybridoma; also called 11E2
binding result [1]: binds

B2: rat anti-ALK2 monoclonal antibody A2-15A (antibody, V domains shown)
VH: EVQLVESGGGLVQPGRSLKLSCAASGFTFSHYYMAWVRQAPTKGLEWVASITNSGGSINYRDSVKGRFTISRDNAKSTLYLQMDSLRSEDTATYYCTREGGENYGGYPPFAYWGQGTLVTVSS
VL: DIVLTQSPALAVSLGQRATISCRANQGVSLSRYNLMHWYQQKPGQKPKLLIYRSSNLASGIPARFSGSGSGTDFTLTINPVQADDIATYYCQQSRESPFTFGAGTKLELKR
notes: Rat monoclonal IgG from a hybridoma; also called 15A6
binding result [1]: binds

B3: rat anti-ALK2 monoclonal antibody A2-25C (antibody, V domains shown)
VH: EVQLVESGGGLVQPGGSLKLSCAASGFTFSYYAMSWVCQAPTKGLEWVASISRGGDNTYYRDTVKGRFTTSRDNAKNTLYLQMDSLRSEDTATYYCARLNYNNYFDYWGQGVMVTVSS
VL: DIQMTQSPASLSASLEEIVTITCQASQDIGNWLSWYQQKPGKSPQLLIYGATSLADGVPSRFSGSRSGTQYSLKISRLRVEDIGIYYCLQAYSAPFTFGSGTKLEIKR
notes: Rat monoclonal IgG from a hybridoma; also called 25C11
binding result [2]: binds
binding result [3]: binds
binding result [1]: binds

B4: rat anti-ALK2 monoclonal antibody A2-27D (antibody, V domains shown)
VH: EVQLVESGGGLVQPGRSLKLSCLASGSTFSNYGMKWIRQAPGKGLEWVASISRSSTYIYYADTVKGRFTISRDNARNTLYLQMTSLRSEDTALYYCAAAISTPFYWYFDFWGPGTVVTVSS
VL: EIVLTQSPTTMAASPGEKVTLNCLASSSVSYMTWYQQKSGASPKLWIYGTSNLASGVPNRFSGSGSGTSYSLAISSMEAEDVATYYCLHLTSYPPYTFGAGTKLELKR
notes: Rat monoclonal IgG from a hybridoma; also called 27D11
binding result [2]: binds
binding result [3]: binds
binding result [1]: binds
